Experimental data: publication PMC4560160

Legend:
[1] = target: human CCR5 expressed on DHFR-deficient CHO cells (CHO-CCR5) (human) (UniProt P51681)
[2] = target: CCR5 endogenously expressed on human blood-derived monocytes, monocyte-derived macrophages (MDMs) and T cell blasts (human (endogenous in blood monocytes, MDMs and T cell blasts)) (UniProt P51681)
[3] = target: CCR5 endogenously expressed on human blood-derived monocytes, monocyte-derived macrophages (MDMs) and T cell blasts (human (endogenous in blood monocytes, MDMs and T cell blasts)) (UniProt P51681); remark: listed apart in the source

Chain of CCL5 (P13501 24-91): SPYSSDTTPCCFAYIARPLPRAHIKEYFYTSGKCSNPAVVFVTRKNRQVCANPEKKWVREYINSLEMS

Row | CCR5 down-modulation: reduction of the specific binding of each anti-CCR5 mAb to the surface of CHO-CCR5 cells after 1 h at 37°C with 100 nM CCL5, flow cytometry [1] | CCR5 down-modulation on monocytes after overnight culture with 100 nM analog: reduction of the surface binding signal of MC5, 2D7 and CTC5, flow cytometry [2] | CCR5 down-modulation on MDMs after overnight exposure to 100 nM ligand, detected with CTC5, flow cytometry [3] | Substance
1 | 50% | – | – | CCL5 (from UniProt P13501 24-91) (ligand)
2 | – | 50% | > 50% | PSC-RANTES: Nα(n-nonanoyl)-des-Ser(1)-[L-thioprolyl(2), L-cyclohexylglycyl(3)]-RANTES(4-68) (from UniProt P13501 27-91) (ligand)
3 | – | 50% | > 50% | amino-oxypentane (AOP)-RANTES (from UniProt P13501 24-91) (ligand)
